Values joined by “and” are separate entries in the source; they are usually repeats but may differ in a detail not shown here. Equal values may be shown once.
How the values were obtained:
229-kinase [1] = molecular target: 229-kinase (UniProt P19525); assay: sedimentation velocity AUC; conditions: AU75: 75 mM HEPES pH 7.5, 75 mM NaCl, 0.1 mM EDTA, 0.1 mM TCEP, 20 °C, 50,000 rpm, 260 nm; errors are confidence intervals (95% joint stated for Table 2) …
242-kinase [2] = molecular target: 242-kinase (UniProt P19525); assay: sedimentation velocity AUC; conditions: AU75: 75 mM HEPES pH 7.5, 75 mM NaCl, 0.1 mM EDTA, 0.1 mM TCEP, 20 °C, 50,000 rpm, 260 nm; errors are confidence intervals (95% joint stated for Table 2) …
229-kinase [3] = molecular target: 229-kinase (UniProt P19525 229-551); assay: sedimentation velocity AUC; Kd1, sequential 2:1; AU75: 75 mM HEPES pH 7.5, 75 mM NaCl, 0.1 mM EDTA, 0.1 mM TCEP, 20 °C, 50,000 rpm, 260 nm; errors are confidence intervals (95% joint stated for Table 2); crosslinking in AU75 + 10 mM EDTA, 0.5 µM RNA, 1 µM protein, on ice before UV; conditions: protein: recombinant; tags: TEV-cleaved, extra N-terminal Gly; chain copies: 2; single strand
PKR full length = PKR full length (UniProt P19525 1-551); assay: as above; conditions: protein: recombinant, chain copies: 2
PKR dsRBD [4] = molecular target: T1, PKR dsRBD (UniProt P19525 1-184); assay: sedimentation velocity AUC; Kd1; footnote b not in material; AU75: 75 mM HEPES pH 7.5, 75 mM NaCl, 0.1 mM EDTA, 0.1 mM TCEP, 20 °C, 50,000 rpm, 260 nm; errors are confidence intervals (95% joint stated for Table 2); crosslinking in AU75 + 10 mM EDTA, 0.5 µM RNA, 1 µM protein, on ice before UV; conditions: protein: recombinant; chain copies: 2; weak predicted secondary structure
185-kinase = 185-kinase (UniProt P19525 185-551); assay: sedimentation velocity AUC; Kd1, sequential 2:1; AU75: 75 mM HEPES pH 7.5, 75 mM NaCl, 0.1 mM EDTA, 0.1 mM TCEP, 20 °C, 50,000 rpm, 260 nm; errors are confidence intervals (95% joint stated for Table 2); crosslinking in AU75 + 10 mM EDTA, 0.5 µM RNA, 1 µM protein, on ice before UV; conditions: protein: recombinant; tags: TEV-cleaved, extra N-terminal Gly; chain copies: 2; single strand
PKR dsRBD [5] = molecular target: T1, PKR dsRBD; assay: as above; conditions: protein: recombinant; chain copies: 2; single strand
242-kinase [6] = molecular target: 242-kinase (UniProt P19525 242-551); assay: sedimentation velocity AUC; 1:1 model; second protein not detected; AU75: 75 mM HEPES pH 7.5, 75 mM NaCl, 0.1 mM EDTA, 0.1 mM TCEP, 20 °C, 50,000 rpm, 260 nm; errors are confidence intervals (95% joint stated for Table 2); crosslinking in AU75 + 10 mM EDTA, 0.5 µM RNA, 1 µM protein, on ice before UV; conditions: protein: recombinant; tags: TEV-cleaved; single strand
[7] = weak predicted secondary structure

T1 sequence (P19525 1-184): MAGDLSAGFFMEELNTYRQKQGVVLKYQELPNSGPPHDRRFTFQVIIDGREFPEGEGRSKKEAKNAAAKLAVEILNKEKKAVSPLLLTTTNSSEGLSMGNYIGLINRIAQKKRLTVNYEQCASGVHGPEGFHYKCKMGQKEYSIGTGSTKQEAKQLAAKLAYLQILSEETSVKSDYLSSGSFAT
PKR full length, sequence (P19525 whole entry): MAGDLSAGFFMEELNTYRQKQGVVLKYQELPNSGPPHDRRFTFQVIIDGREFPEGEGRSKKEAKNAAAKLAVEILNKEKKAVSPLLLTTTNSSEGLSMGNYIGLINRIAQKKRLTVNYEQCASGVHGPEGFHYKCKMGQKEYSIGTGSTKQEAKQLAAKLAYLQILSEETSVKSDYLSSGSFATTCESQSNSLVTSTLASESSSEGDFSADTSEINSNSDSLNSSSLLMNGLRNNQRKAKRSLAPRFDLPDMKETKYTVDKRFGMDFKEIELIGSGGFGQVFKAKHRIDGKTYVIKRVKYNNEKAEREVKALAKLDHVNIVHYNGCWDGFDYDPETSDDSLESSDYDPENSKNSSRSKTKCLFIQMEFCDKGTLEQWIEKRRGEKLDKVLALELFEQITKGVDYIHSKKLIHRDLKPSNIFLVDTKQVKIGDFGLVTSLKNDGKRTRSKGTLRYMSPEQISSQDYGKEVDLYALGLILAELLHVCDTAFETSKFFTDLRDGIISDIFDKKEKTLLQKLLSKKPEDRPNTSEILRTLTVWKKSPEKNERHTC
229-kinase (UniProt P19525 229-551), sequence (P19525 229-551): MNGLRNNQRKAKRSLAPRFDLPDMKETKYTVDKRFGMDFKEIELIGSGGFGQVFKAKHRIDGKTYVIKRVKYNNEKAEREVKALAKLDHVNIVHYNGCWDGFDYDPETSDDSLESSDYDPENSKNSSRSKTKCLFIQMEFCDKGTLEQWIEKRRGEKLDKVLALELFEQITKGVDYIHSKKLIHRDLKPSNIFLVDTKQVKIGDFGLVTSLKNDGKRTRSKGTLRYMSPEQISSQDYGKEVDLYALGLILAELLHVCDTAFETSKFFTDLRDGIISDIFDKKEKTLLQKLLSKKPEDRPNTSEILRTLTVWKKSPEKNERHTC
229-kinase (UniProt P19525), sequence (P19525 229-551): as above
185-kinase, sequence (P19525 185-551): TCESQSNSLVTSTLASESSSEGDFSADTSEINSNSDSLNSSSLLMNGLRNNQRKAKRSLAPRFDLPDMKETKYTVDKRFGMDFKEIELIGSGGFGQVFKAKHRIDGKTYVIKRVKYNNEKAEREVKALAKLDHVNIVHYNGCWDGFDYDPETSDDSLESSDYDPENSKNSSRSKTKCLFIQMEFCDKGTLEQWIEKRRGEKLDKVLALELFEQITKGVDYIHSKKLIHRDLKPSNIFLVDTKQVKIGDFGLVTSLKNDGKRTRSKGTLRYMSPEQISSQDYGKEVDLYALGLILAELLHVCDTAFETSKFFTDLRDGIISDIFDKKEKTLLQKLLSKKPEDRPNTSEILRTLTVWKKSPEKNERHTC
242-kinase (UniProt P19525), sequence (P19525 242-551): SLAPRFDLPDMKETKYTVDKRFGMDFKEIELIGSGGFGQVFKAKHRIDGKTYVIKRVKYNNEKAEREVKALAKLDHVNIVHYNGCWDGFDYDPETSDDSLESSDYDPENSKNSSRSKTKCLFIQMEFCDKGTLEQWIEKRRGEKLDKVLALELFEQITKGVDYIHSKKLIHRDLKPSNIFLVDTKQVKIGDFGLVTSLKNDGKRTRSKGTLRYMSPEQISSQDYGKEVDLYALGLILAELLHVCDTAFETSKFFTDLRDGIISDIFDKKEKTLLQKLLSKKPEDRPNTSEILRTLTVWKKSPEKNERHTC
242-kinase (UniProt P19525 242-551), sequence (P19525 242-551): as above

Row | Molecule | Kd (229-kinase [3]) | Kd (PKR full length; [7]) | Kd (PKR dsRBD [4]) | other results
1 | ds30 | – | – | – | Kd (229-kinase [1]): 3.8 µM and 3.27 µM; Kd (242-kinase [2]): 19.9 µM
2 | TTTTTTTTTTTTTTTTTTTTTTTTTTTTTT (ssDNA) [dT30] | 2.59 µM | – | – | –
3 | GGAGAACUUAAUGCCGGAGACCAAAGACUU (ssRNA, 5'-triphosphate) [ppp-Het30] | – | 0.825 µM | 5.36 µM | –
4 | GGAGAACUUAAUGCCGGAGACCAAAGACUU (ssRNA, 5'-OH) [Het30] | – | 1.07 µM | 8.21 µM | –
5 | UUUUUUUUUUUUUUUUUUUUUUUUUUUUUU (ssRNA) [U30] | 1.91 µM | – | – | Kd (PKR full length; single strand): 3.51 µM; Kd (185-kinase): 31.9 µM; Kd (PKR dsRBD [5]): 8.42 µM; Kd (242-kinase [6]): 90 µM

Source: PMC5469796, “Interaction of PKR with single-stranded RNA”
